Measured values as given in paper PMC5986797, “Laminin heparin-binding peptides bind to several growth factors and enhance diabetic wound healing” (Nature Communications, 2018).

What was measured:
Conditions in all cases: both partners purified
FGF-2 = target: T1, FGF-2 (human, UniProt P09038 143-288); assay: ELISA; plates coated with laminin peptide (10 µg/mL by the legend, 1 μg/mL by the methods); 1 μg/mL GF added; bound GF detected with an antibody for each GF; BSA-coated wells as control
T1 construct: fibroblast growth factor 2, human, bought in its mature form; source: bought: PeproTech; produced in Escherichia coli
T1 sequence (P09038 143-288): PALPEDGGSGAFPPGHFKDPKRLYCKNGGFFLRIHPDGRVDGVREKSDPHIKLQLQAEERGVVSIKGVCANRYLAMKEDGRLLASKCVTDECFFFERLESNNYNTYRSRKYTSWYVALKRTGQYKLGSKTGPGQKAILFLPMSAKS

[1] = target: T2, recombinant human laminin-111 (human, UniProt P25391 18-3075; P07942 22-1786; P11047 34-1609); assay: ELISA; plates coated with 50 nM GF or chemokine in PBS; 10 nM laminin isoform in PBS added; bound laminin detected with anti-LAMC1 or anti-LAMA3 polyclonal antibody; A450 signals greater than 0.1 taken as binding; BSA-coated wells as control
T2 construct: laminin subunit alpha-1, human; chain told by the isoform's name; laminin subunit beta-1, human; laminin subunit gamma-1, human; source: bought: BioLamina (recombinant human, >95% purity); copies: + +

[2] = target: T3, recombinant human laminin-211 (human, UniProt P24043 23-3122; P07942 22-1786; P11047 34-1609); assay: as above
T3 construct: laminin subunit alpha-2, human; chain told by the isoform's name; laminin subunit beta-1, human; laminin subunit gamma-1, human; source: bought: BioLamina (recombinant human, >95% purity); copies: + +

[3] = target: T4, recombinant human laminin-511 (human, UniProt O15230 36-3695; P07942 22-1786; P11047 34-1609); assay: as above
T4 construct: laminin subunit alpha-5, human; chain told by the isoform's name; laminin subunit beta-1, human; laminin subunit gamma-1, human; source: bought: BioLamina (recombinant human, >95% purity); copies: + +

[4] = target: T5, recombinant human laminin-521 (human, UniProt O15230 36-3695; P55268 33-1798; P11047 34-1609); assay: as above
T5 construct: laminin subunit alpha-5, human; chain told by the isoform's name; laminin subunit beta-2, human; laminin subunit gamma-1, human; also called laminin isoform-521; source: bought: BioLamina (recombinant human, >95% purity); copies: + +

[5] = target: T6, placental growth factor (PlGF)-2 (human, UniProt P49763-3 19-170); assay: ELISA; plates coated with laminin peptide (10 µg/mL by the legend, 1 μg/mL by the methods); 1 μg/mL GF added; bound GF detected with an antibody for each GF; BSA-coated wells as control
T6 construct: placenta growth factor, form PlGF-2, human, bought in its mature form; source: bought: PeproTech; produced in Escherichia coli
T6 sequence (looked up): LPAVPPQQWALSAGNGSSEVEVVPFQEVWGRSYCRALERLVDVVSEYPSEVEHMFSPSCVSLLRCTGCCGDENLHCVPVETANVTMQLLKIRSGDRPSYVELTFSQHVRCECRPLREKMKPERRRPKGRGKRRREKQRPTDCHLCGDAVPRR

[6] = target: T7, platelet-derived growth factor PDGF-BB (human, UniProt P01127 82-190); assay: as above
T7 construct: platelet-derived growth factor subunit B, human, bought in its mature form; a homodimer by its name; source: bought: PeproTech; produced in Escherichia coli
T7 sequence (P01127 82-190): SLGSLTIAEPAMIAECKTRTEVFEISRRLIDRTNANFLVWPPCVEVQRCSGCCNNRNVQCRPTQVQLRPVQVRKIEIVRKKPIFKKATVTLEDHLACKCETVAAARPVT

[7] = target: T8, recombinant human syndecan-1 (human, UniProt P18827 23-254); assay: ELISA; plates coated with laminin peptide (10 µg/mL by the legend, 1 μg/mL by the methods); 1 μg/mL His-tagged syndecan added; detected with anti-histidine tag antibody; BSA-coated wells as control
T8 construct: syndecan-1, human, recombinant; probably the extracellular domain; source: bought: SinoBiological
T8 sequence (looked up): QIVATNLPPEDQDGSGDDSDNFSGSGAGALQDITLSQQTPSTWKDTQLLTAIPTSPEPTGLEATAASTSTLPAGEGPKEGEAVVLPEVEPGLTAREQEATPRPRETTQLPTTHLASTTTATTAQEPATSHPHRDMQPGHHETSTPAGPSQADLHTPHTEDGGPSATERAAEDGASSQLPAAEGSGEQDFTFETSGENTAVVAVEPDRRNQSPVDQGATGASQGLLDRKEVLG

[8] = target: T9, recombinant human syndecan-2 (human, UniProt P34741 19-144); assay: as above
T9 construct: syndecan-2, human, recombinant; probably the extracellular domain; source: bought: SinoBiological
T9 sequence (P34741 19-144): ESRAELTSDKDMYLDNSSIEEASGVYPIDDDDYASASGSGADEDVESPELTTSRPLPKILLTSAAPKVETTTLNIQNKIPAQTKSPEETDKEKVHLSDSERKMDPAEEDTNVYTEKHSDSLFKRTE

[9] = target: T10, recombinant human syndecan-4 (human, UniProt P31431 19-145); assay: as above
T10 construct: syndecan-4, human, recombinant; probably the extracellular domain; source: bought: SinoBiological
T10 sequence (looked up): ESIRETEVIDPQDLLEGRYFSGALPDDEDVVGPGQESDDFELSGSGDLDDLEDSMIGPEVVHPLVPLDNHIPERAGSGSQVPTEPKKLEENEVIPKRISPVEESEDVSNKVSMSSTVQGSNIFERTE

Measured: binding result

B1: laminin peptide LAMA3_(2932–2951) (peptide, UniProt Q16787 2932-2951, looked up)
peptide: PPFLMLLKGSTRFNKTKTFR
notes: laminin subunit alpha-3, human, residues 2932-2951, from the LG3-LG4 linker; source: synthetic peptide (Genscript)
binds: FGF-2

B2: FGF-7 (ligand, UniProt P21781 32-194, looked up)
chain: CNDMTPEQMATNVNCSSPERHTRSYDYMEGGDIRVRRLFCRTQWYLRIDKRGKVKGTQEMKNNYNIMEIRTVAVGIVAIKGVESEFYLAMNKEGKLYAKKECNEDCNFKELILENHYNTYASAKWTHNGGEMFVALNQKGIPVRGKKTKKEQKTAHFLPMAIT
notes: fibroblast growth factor 7, bought in its mature form; source: bought: PeproTech; produced in Escherichia coli
binds: [1] | [2] | [3] | [4]

B3: NT-3 (ligand, UniProt P20783 139-257, looked up)
chain: YAEHKSHRGEYSVCDSESLWVTDKSSAIDIRGHQVTVLGEIKTGNSPVKQYFYETRCKEARPVKNGCRGIDDKHWNSQCKTSQTYVRALTSENNKLVGWRWIRIDTSCVCALSRKIGRT
notes: neurotrophin-3, bought in its mature form; also called neurotrophin NT-3; source: bought: PeproTech; produced in Escherichia coli
binds: [1] | [2] | [3] | [4]

B4: laminin peptide LAMA5_(3417–3436) (peptide, UniProt O15230 3417-3436, looked up)
peptide: RQRSRPGRWHKVSVRWEKNR
notes: laminin subunit alpha-5, human, residues 3417-3436; source: synthetic peptide (Genscript)
binds: [5] | [6] | FGF-2 | [7] | [8] | [9]

B5: FGF-10 (ligand, UniProt O15520 38-208, looked up)
chain: QALGQDMVSPEATNSSSSSFSSPSSAGRHVRSYNHLQGDVRWRKLFSFTKYFLKIEKNGKVSGTKKENCPYSILEITSVEIGVVAVKAINSNYYLAMNKKGKLYGSKEFNNDCKLKERIEENGYNTYASFNWQHNGRQMYVALNGKGAPRRGQKTRRKNTSAHFLPMVVHS
notes: fibroblast growth factor 10, bought in its mature form; source: bought: PeproTech; produced in Escherichia coli
binds: [1] | [2] | [3] | [4]

B6: BMP-3 (ligand, UniProt P12645 363-472, looked up)
chain: QWIEPRNCARRYLKVDFADIGWSEWIISPKSFDAYYCSGACQFPMPKSLKPSNHATIQSIVRAVGVVPGIPEPCCVPEKMSSLSILFFDENKNVVLKVYPNMTVESCACR
notes: bone morphogenetic protein 3, bought in its mature form; source: bought: PeproTech; produced in Escherichia coli
binds: [1] | [2] | [3] | [4]

B7: laminin peptide LAMA5_(3539–3550) (peptide, UniProt O15230 3539-3550, looked up)
peptide: TLPDVGLELEVR
notes: laminin subunit alpha-5, human, residues 3539-3550; source: synthetic peptide (Genscript)
binds: [5] | [6] | FGF-2

B8: laminin peptide LAMA3_(3043–3067) (peptide, UniProt Q16787 3043-3067, looked up)
peptide: RLVFALGTDGKKLRIKSKEKCNDGK
notes: laminin subunit alpha-3, human, residues 3043-3067; also called laminin HBD peptide; source: synthetic peptide (Genscript)
binds: [5] | [6] | FGF-2 | [7] | [8] | [9]

B9: laminin peptide LAMA5_(3300–3330) (peptide, UniProt O15230 3300-3330, looked up)
peptide: TPGLGPRGLQATARKASRRSRQPARHPACML
notes: laminin subunit alpha-5, human, residues 3300-3330, from the LG3-LG4 linker; source: synthetic peptide (Genscript)
binds: [5] | [7] | [8] | [9]

B10: FGF-18 (ligand, UniProt O76093 28-207, looked up)
chain: EENVDFRIHVENQTRARDDVSRKQLRLYQLYSRTSGKHIQVLGRRISARGEDGDKYAQLLVETDTFGSQVRIKGKETEFYLCMNRKGKLVGKPDGTSKECVFIEKVLENNYTALMSAKYSGWYVGFTKKGRPRKGPKTRENQQDVHFMKRYPKGQPELQKPFKYTTVTKRSRRIRPTHPA
notes: fibroblast growth factor 18, bought in its mature form; source: bought: PeproTech; produced in Escherichia coli
binds: [1] | [2] | [3] | [4]

B11: BMP-2 (ligand, UniProt P12643 283-396, looked up)
chain: QAKHKQRKRLKSSCKRHPLYVDFSDVGWNDWIVAPPGYHAFYCHGECPFPLADHLNSTNHAIVQTLVNSVNSKIPKACCVPTELSAISMLYLDENEKVVLKNYQDMVVEGCGCR
notes: bone morphogenetic protein 2, bought in its mature form; source: bought: PeproTech; produced in Escherichia coli
binds: [1] | [2] | [3] | [4]
